# ± gives the standard deviation.
# Assay: protein stability index of a GFP-peptide fusion (GPS, HEK-293T) (PSI 1-6); higher = more stable
# [1] = treatment: DMSO, c terminus: a fixed tail appended
# [2] = treatment: MLN4924 1 uM, 8 h, c terminus: a fixed tail appended
# 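Further: 24-mer peptide tiles fused after GFP, lentivirally expressed, FACS-sorted into six equal bins by GFP/DsRed ratio, decoded by Illumina sequencing, PSI is the read-weighted mean bin number.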
sequence,measurement,setting,value
RELGIRQRDEQLRALQERLGQQQR [FBF1],protein stability index,[1],4.39 ± 0.14
same,protein stability index,[2],4.42 ± 0.14
SPEPPSLYGALNPQYEFKEAAGSF [IRX6],protein stability index,[1],3.47 ± 0.24
same,protein stability index,[2],3.6 ± 0.22
SSAAMQSSCSSTSGGGGGGGGGGG [CCDC6],protein stability index,[1],5.2 ± 0.49
same,protein stability index,[2],5.16 ± 0.19
FWKKYRTFWKEDKAFWKEDNALWE [CCDC70],protein stability index,[1],2.54 ± 0.49
same,protein stability index,[2],2.26 ± 0.36
SHLQTNYSKTFQRSNVDFLETPEL [NECAB1],protein stability index,[1],3.47 ± 0.23
same,protein stability index,[2],3.62 ± 0.57
GDSDSALDSVSPCPSSPKQIHLDV [DLC1],protein stability index,[1],4.8 ± 0.37
same,protein stability index,[2],4.66 ± 0.35
NLANCERLIEVEDMMVMGRKPDPM [SMTNL2],protein stability index,[1],3.36 ± 0.25
same,protein stability index,[2],3.48 ± 0.31
SENVVNRMKEPSSPPPAPTSSTFG [CHCHD6],protein stability index,[1],5.04 ± 0.2
same,protein stability index,[2],5.3 ± 0.13
CFLLTAMAYDQFLAICRPLTYSTR [OR3A1],protein stability index,[1],2.89 ± 0.35
same,protein stability index,[2],2.89 ± 0.69
HLVEETRIHVLPSLNPDGYEKAYE [CPXM2],protein stability index,[1],4.46 ± 0.15
same,protein stability index,[2],4.34 ± 0.046
KQKGSEENLDEAREQKEKSPPDQP [ADD1],protein stability index,[1],5.68 ± 0.26
same,protein stability index,[2],5.78 ± 0.15
AWTLINLSFAAKQRELHSHVTNAM [DHCR7],protein stability index,[1],3.12 ± 0.34
same,protein stability index,[2],3.05 ± 0.24
CAGSTALQEPGEPQGPPASPSCPE [PXN],protein stability index,[1],5.15 ± 0.27
same,protein stability index,[2],5.48 ± 0.18
GVADFSATYLRCQLLLIKALQEKL [INTS4],protein stability index,[1],2.77 ± 0.42
same,protein stability index,[2],2.65 ± 0.48
LAEIRCDLERQNQEYQVLLDVRAR [KRT34],protein stability index,[1],3.57 ± 0.17
same,protein stability index,[2],3.59 ± 0.13
EKNKHIFPASRWEPYDPEKKWDKY [FAM50A],protein stability index,[1],3.52 ± 0.2
same,protein stability index,[2],3.6 ± 0.14
NKKNILLRLLREEEYVAPPRGPLP [TRAF3IP2],protein stability index,[1],2.44 ± 0.25
same,protein stability index,[2],3.06 ± 0.54
SELPFVPNYLANPAFPFIYTPTAE [ANKRD40],protein stability index,[1],2.8 ± 0.19
same,protein stability index,[2],2.95 ± 0.2
GFPGERTYNTKVYKMFASRRKQRY [LOXL2],protein stability index,[1],2.72 ± 0.42
same,protein stability index,[2],2.98 ± 0.51
VIDILPNCVSSVYLYYDPDYSFLS [ATE1],protein stability index,[1],3.35 ± 0.49
same,protein stability index,[2],3.1 ± 0.77
PDAETLKVMKQPRCGVPDVAQFVL [MMP1],protein stability index,[1],2.4 ± 0.3
same,protein stability index,[2],2.31 ± 0.27
EAQLSLIRDIRRRGKNKMAAQNCR [NFE2L1],protein stability index,[1],3.61 ± 0.35
same,protein stability index,[2],3.58 ± 0.22
LACLHVACVVQQKDARQWFAELSV [CCNC],protein stability index,[1],3.22 ± 0.61
same,protein stability index,[2],3.28 ± 0.45
SLRFNGRVLFIKDVIGDEICCWSF [KCTD10],protein stability index,[1],2.65 ± 0.49
same,protein stability index,[2],2.42 ± 0.45
MCSTLEHNCAHFCINIPGSYVCRC [MATN2],protein stability index,[1],3.18 ± 0.33
same,protein stability index,[2],3.19 ± 0.44
QQVKKLEKALKKNVKLQELINHKK [CEP70],protein stability index,[1],2.6 ± 0.28
same,protein stability index,[2],2.67 ± 0.41
CKNSNTVYCKLESCPSRGQGKPS [SPRY1],protein stability index,"treatment: DMSO, c terminus: native",3.789 ± 0.011
same,protein stability index,"treatment: MLN4924 1 uM, 8 h, c terminus: native",3.97 ± 0.22
LRTSNGQPVKTAGEITQHNVTELL [DNAAF3],protein stability index,[1],4.14 ± 0.23
same,protein stability index,[2],4.33 ± 0.17
ESSAKSKINVNEIFYDLVRQINRK [RAP1B],protein stability index,[1],1.92 ± 0.38
same,protein stability index,[2],1.96 ± 0.25
TLREITDQEHNVAALKQAIKDKEA [TEKT4],protein stability index,[1],4.92 ± 0.27
same,protein stability index,[2],4.88 ± 0.26
GLETGDWGGAPKEGSIWRGAQMEK [ZSWIM9],protein stability index,[1],4.07 ± 0.3
same,protein stability index,[2],4.45 ± 0.22
SWFDNGSICMRMEILGCPLPDPNN [CPXM2],protein stability index,[1],2.09 ± 0.089
same,protein stability index,[2],2.3 ± 0.47
SVLQSVWMEVLVLGVAQRSLPLQD [ESRRA],protein stability index,[1],3.62 ± 0.79
same,protein stability index,[2],3.38 ± 0.57
SLSKKYRQDAKYLNMRSTYAKLAA [SEC22B],protein stability index,[1],2.56 ± 0.24
same,protein stability index,[2],2.62 ± 0.073
SEQEHFLIVPFGLLYSEVTASSLV [ADD1],protein stability index,[1],2.65 ± 0.57
same,protein stability index,[2],2.92 ± 0.68
SPVTTSPTAATTQNPVLSKLLMAD [LCOR],protein stability index,[1],4.536 ± 0.031
same,protein stability index,[2],4.44 ± 0.081
DNWDEKKLEEVVNKKHGEAEKKKP [ZC3H15],protein stability index,[1],5.48 ± 0.48
same,protein stability index,[2],5.75 ± 0.25
AAAFSQCEEWSFFHAYYYCFITLT [KCNK9],protein stability index,[1],3.33 ± 0.51
same,protein stability index,[2],3.23 ± 0.49
QQLLPPFPSLHQSLPQNQCYMATT [EHMT1],protein stability index,[1],3.29 ± 0.13
same,protein stability index,[2],3.16 ± 0.17
VQGIGIPLVTAIEIVSIWILSFIL [EDNRA],protein stability index,[1],3.02 ± 0.63
same,protein stability index,[2],2.42 ± 0.49
MELPSGPGPERLFDSHRLPGDCFL [AUP1],protein stability index,[1],3.36 ± 0.36
same,protein stability index,[2],3.27 ± 0.35
GENSDGCYEHFAELDIPQSVQQNG [CLPTM1],protein stability index,[1],5 ± 0.33
same,protein stability index,[2],5.01 ± 0.32
DCLQFYVNSTLKELRRLFLVQDLV [RTN1],protein stability index,[1],2.99 ± 0.61
same,protein stability index,[2],2.81 ± 0.76
RNIHRHVILSEIKEAVAALPPDVT [TCF25],protein stability index,[1],3.35 ± 0.084
same,protein stability index,[2],3.62 ± 0.28

# Reference: the supplement of paper PMC10567573
